One substance from US20130045539 can be followed below.

This data set relates to hsRAG1 engineered meganuclease (I-CreI-derived) (artificial (I-CreI backbone, Chlamydomonas reinhardtii?)). The data set is described as follows: cell_activity. The settings on record: HEK-293, meganuclease-driven targeted integration at RAG1; other lines 7-16%; indirect readout of cleavage.

“human RAG1 locus meganuclease target site” came in with an activity (% targeted clones) of 44.
